{"source": "patent US4732973A", "about": "“Active site modified protease α-1-antitrypsin inhibitors” (Chiron Corporation, priority 1984, dated 1988)", "key": {"[1]": {"tested_on": "human leukocyte elastase (HLE)", "experiment": "Anti-elastase activity: inhibition of human leukocyte elastase cleavage of MeO-Suc-Ala-Ala-Pro-Val-p-nitroanilide (A410)", "format": "biochemical", "protocol": "For the assay, extracts were diluted in 50 mM Tris pH8, 50 mM NaCl. […] Assays were initiated by the addition of 0.1 5 μg HLE and were incubated for 15 min at 28° C., terminated by the addition of 100 μl of 8N acetic acid and the absorbance at 410 nm determined (Beatty et al., supra). Protein concentrations were determined as described in Bradford, Anal. Biochem. (1976) 72:248-253. From the amount of human leukocyte elastase activity observed, given the protein concentration of the yeast extracts and the amount of the enzyme added, the percentage of the yeast soluble protein which is α1 -antitrypsin can be calculated. It is assumed that there is 100 percent human leukocyte elastase activity, a 1:1 complex between human leukocyte elastase and α1 -antitrypsin whose molecular weights are 29 kD and 42 kD, respectively."}, "[2]": {"tested_on": "human leukocyte elastase (HLE)", "experiment": "Oxidation resistance: N-chlorosuccinimide (NCS) treatment, then anti-HLE activity assay", "format": "biochemical", "method": "To determine the anti-elastase activities of the mutant (Val) or wild-type (Met) α1 -antitrypsin, appropriate yeast extracts were incubated with human leukocyte elastase (HLE) and a synthetic peptide substrate the cleavage of which can be assayed at 410 nm (Beatty et al., supra). For the assay, extracts were diluted in 50 mM Tris pH8, 50 mM NaCl. […] Assays were initiated by the addition of 0.1 5 μg HLE and were incubated for 15 min at 28° C., terminated by the addition of 100 μl of 8N acetic acid and the absorbance at 410 nm determined (Beatty et al., supra).\nFor this purpose, aliquots of the extracts were diluted in 50 mM Tris pH8, 50 mM NaCl, incubated at room temperature for 5 min in 100 μl of 50 mM Tris pH8, with the indicated amount of NCS, and assayed for anti-HLE activity."}}, "note": "“And” between values parts separate entries of the source, which are not always exact repeats. Identical values can stand only once."}
{"substance": "α1 AT: Control human α1-antitrypsin added in μg amounts to the elastase assay", "values": [{"measurement": "Elastase Activity (%)", "setting": "[1]; Table 1, 0.2 μg control human α1 AT, no NCS", "value": 67, "unit": "%"}, {"measurement": "Elastase Activity (%)", "setting": "[1]; Table 1, 1.0 μg control human α1 AT plus 3.8 μl Cl/l yeast extract, no NCS", "value": 12, "unit": "%"}, {"measurement": "Elastase Activity (%)", "setting": "[1]; Table 1, 1.0 μg control human α1 AT, no NCS", "value": "5% and 0%"}, {"measurement": "Elastase Activity (%)", "setting": "[1]; Table 2, 0.5 μg control human α1 AT, NCS -", "value": 44, "unit": "%"}, {"measurement": "Elastase Activity (%)", "setting": "[1]; Table 2, 1.0 μg control human α1 AT, NCS -", "value": 10, "unit": "%"}, {"measurement": "Elastase Activity (%)", "setting": "[2]; Table 1, 1.0 μg control human α1 AT plus 3.8 μl Cl/l yeast extract, NCS (10 mM) 10 μl", "value": 84, "unit": "%"}, {"measurement": "Elastase Activity (%)", "setting": "[2]; Table 1, 1.0 μg control human α1 AT, NCS (10 mM) 10 μl", "value": 91, "unit": "%"}, {"measurement": "Elastase Activity (%)", "setting": "[2]; Table 2, 0.5 μg control human α1 AT, NCS (10 mM) +", "value": 96, "unit": "%"}]}
